{
  "source": "paper PMC6888645",
  "about": "“Oligomerization Affects the Ability of Human Cyclase-Associated Proteins 1 and 2 to Promote Actin Severing by Cofilins” (International Journal of Molecular Sciences, 2019)",
  "binders": {"B1": {"name": "N-CAP2, N-terminal fragment of human cyclase-associated protein 2 (original coiled coil and helical folded domain) (domain or fragment, UniProt P40123 1-220, looked up)", "chain": "MANMQGLVERLERAVSRLESLSAESHRPPGNCGEVNGVIAGVAPSVEAFDKLMDSMVAEFLKNSRILAGDVETHAEMVHSAFQAQRAFLLMASQYQQPHENDVAALLKPISEKIQEIQTFRERNRGSNMFNHLSAVSESIPALGWIAVSPKPGPYVKEMNDAATFYTNRVLKDYKHSDLRHVDWVKSYLNIWSELQAYIKEHHTTGLTWSKTGPVASTVS", "notes": "cyclase-associated protein 2 (CAP2), human; N-terminal coiled coil (a.a. 1-29) followed by the helical folded domain (HFD); Cloned in pET21b; 30-220, so this construct probably ends at 220 (surmised); also called CAP2 tetramer; not shown: 6xHis, C-terminal, kept"}, "B2": {"name": "N-CAP1, N-terminal fragment of human cyclase-associated protein 1 (original coiled coil and helical folded domain) (domain or fragment, UniProt Q01518 1-220, looked up)", "chain": "MADMQNLVERLERAVGRLEAVSHTSDMHRGYADSPSKAGAAPYVQAFDSLLAGPVAEYLKISKEIGGDVQKHAEMVHTGLKLERALLVTASQCQQPAENKLSDLLAPISEQIKEVITFREKNRGSKLFNHLSAVSESIQALGWVAMAPKPGPYVKEMNDAAMFYTNRVLKEYKDVDKKHVDWVKAYLSIWTELQAYIKEFHTTGLAWSKTGPVAKELSGL", "notes": "cyclase-associated protein 1 (CAP1), human; N-terminal coiled coil (a.a. 1-29) followed by the helical folded domain (HFD); Cloned in pET21b; also called CAP1 tetramer; not shown: 6xHis, C-terminal, kept"}},
  "key": {"[1]": {"target": "the molecule itself", "assay": "AUC; sedimentation velocity (SV-AUC), 50 µM protein, 20 °C, 50,000 rpm, absorbance at 280 nm, 20 mM Tris-HCl pH 8.0, SEDFIT c(S) model; buffer (Tris-HCl vs PBS) and salt did not affect the oligomerization state"}, "[2]": {"target": "F-actin (skeletal muscle actin, polymerised) ( (rabbit or chicken skeletal …, UniProt P68135 1-377))", "assay": "cell-based or functional assay"}},
  "data": [
    {"binder": "B1", "values": [
      {"measurement": "stoichiometry N", "setting": "[1]", "value": 4}
    ]},
    {"binder": "B2", "values": [
      {"measurement": "potentiation of F-actin severing by 50 nM CFL1 with 750 nM N-CAP construct, single filaments by TIRF microscopy, against CFL1 alone", "setting": "[2]", "value": "> 2.5", "unit": "fold"},
      {"measurement": "stoichiometry N", "setting": "[1]", "value": 4}
    ]}
  ]
}
